These are literature values, as cited in publication PMC3490216.

The target of data set [1] is VPAC2 receptor (UniProt P41587).
Data set [2] deals with VPAC1 receptor (UniProt P32241).
Chain of UniProt P32241 (P32241 31-457): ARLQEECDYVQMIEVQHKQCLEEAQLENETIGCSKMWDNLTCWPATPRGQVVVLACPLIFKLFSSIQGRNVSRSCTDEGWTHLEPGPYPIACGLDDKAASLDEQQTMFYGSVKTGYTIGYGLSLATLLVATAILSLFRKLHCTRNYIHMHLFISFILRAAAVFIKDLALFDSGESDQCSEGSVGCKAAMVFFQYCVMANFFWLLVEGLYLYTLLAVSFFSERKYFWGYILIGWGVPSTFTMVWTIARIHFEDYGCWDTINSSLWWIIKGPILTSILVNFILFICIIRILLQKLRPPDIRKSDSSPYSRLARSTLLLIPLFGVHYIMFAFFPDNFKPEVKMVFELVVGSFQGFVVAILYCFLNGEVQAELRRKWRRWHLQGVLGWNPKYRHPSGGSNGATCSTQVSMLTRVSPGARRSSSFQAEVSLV

Chain of UniProt P41587 (P41587 24-438): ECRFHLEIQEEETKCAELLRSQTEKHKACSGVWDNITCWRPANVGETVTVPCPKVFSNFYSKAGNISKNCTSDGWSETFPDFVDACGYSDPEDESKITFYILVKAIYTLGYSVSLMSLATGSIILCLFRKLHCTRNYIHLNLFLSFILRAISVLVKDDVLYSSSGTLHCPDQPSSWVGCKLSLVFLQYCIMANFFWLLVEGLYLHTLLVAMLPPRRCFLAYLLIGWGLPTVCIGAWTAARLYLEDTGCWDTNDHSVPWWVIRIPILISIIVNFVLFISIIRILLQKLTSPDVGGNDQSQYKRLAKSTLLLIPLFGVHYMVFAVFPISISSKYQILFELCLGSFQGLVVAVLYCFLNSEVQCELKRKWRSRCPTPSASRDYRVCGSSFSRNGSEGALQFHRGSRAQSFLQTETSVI

In the case of VIP (from UniProt P01282), the Kd in data set [1] and in data set [2] was 3 nM each time.

The Kd is a measure of binding affinity in units of concentration.
